Data taken from patent US20250325556A1, “COMPOSITIONS FOR LOCAL BONE FORMATION” (OssiFi Therapeutics LLC, priority 2021, published 2025).

Test system: MC3T3-E1 (mouse calvarial) osteoblast cells
Test: Mineralization assay: rescue of the inhibition of mineralization by sclerostin (ARS mineralization)
Type: cell-based
Conditions: for ARS mineralization relative to wildtype mineralization: additive alone, no O20221-1, compared with cells with no additives
From the text: Mineralization (crystalline calcium phosphate formation) represents an in vitro model of bone formation. Using an assay in which the amount of mineralization is quantified by measuring total calcium after solubilization of deposited crystalline calcium phosphate, sclerostin was previously shown to inhibit mineralization in MC3T3-E1 (mouse calvarial) osteoblast cells. Li et al., J Bone Miner Res 24:578-588 (2008). Following the protocol described in Li et al., Compositions prepared in accordance with Example 1 or mixtures of the described composition components were assayed for their ability to rescue the inhibition of mineralization by sclerostin in MC3T3 osteoblast cells. This assay was used in the examples listed below.

For `COc1ccc2c3ccnc(C(F)(F)F)c3n(CCN3CCOCC3)c2n1` [O20221-1, 4-(2-(2-methoxy-8-(trifluoromethyl)-9H-pyrrolo[2,3-b:5,4-c′]dipyridin-9-yl)ethyl)morpholine], the “ARS mineralization, restoration of normal (wildtype) mineral” value (in presence of sclerostin, compared with wildtype mineralization (cells with no additives)) was “restores normal mineral”.

B1: sclerostin: ectopic sclerostin protein added to cells; inhibits mineralization in MC3T3 osteoblast cells (protein, UniProt Q9BQB4 24-213, looked up)
Sclerostin: QGWQAFKNDATEIIPELGEYPEPPPELENNKTMNRAENGGRPPHHPFETKDVSEYSCRELHFTRYVTDGPCRSAKPVTELVCSGQCGPARLLPNAIGRGKWWRPSGPDFRCIPDRYRAQRVQLLCPGGEAPRARKVRLVASCKCKRLTRFHNQSELKDFGTEAARPQKGRKPRPRARSAKANQAELENAY
In the case of B1, the “ARS mineralization relative to wildtype mineralization” value is reported as “inhibits normal mineralization” and the “ARS mineralization relative to wildtype mineralization” value (listed as Sclerostin) is reported as “inhibits wildtype mineralization”.
